Key:
[1] = biological target: T1, PD-1 (analyte in the BIAcore X100 assay) (UniProt Q15116 25-167, limits assumed); experiment: SPR, BIAcore X100, antibody captured by anti-human IgG on CM5 chip, PD-1 as analyte
T1 construct: also called Programmed Cell Death 1
Procedure: The affinity of the antibodies were determined by ligand-capture method. Anti-human IgG was coupled to the surface of CM5 chip, and DFPD1-9, DFPD1-10, DFPD1-11, DFPD1-12 and DFPD1-13 were diluted respectively to ensure the capturing about 300 RU of the antibody by the anti-human IgG.

PD-1-His [2] = biological target: T2, PD-1-His (UniProt Q15116 25-167, limits assumed); experiment: competition ELISA: antibody premixed with 4 ug/mL PD1-His, added to coated PDL1-Fc, bound PD1-His detected with anti-His-HRP
T2 construct: also called antigen PD-1-His; not shown: His tag
T2 sequence (Q15116 25-167 limits assumed): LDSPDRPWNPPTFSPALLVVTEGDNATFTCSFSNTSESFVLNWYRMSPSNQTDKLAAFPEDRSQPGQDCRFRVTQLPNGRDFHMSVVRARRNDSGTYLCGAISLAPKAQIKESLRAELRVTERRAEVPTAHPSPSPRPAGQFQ
Procedure: PDL1-Fc in pH9.6 carbonate buffer solution was used for coating plates at 4° C. for overnight. After washing five times with PBST, the wells were blocked for two hours with 1% BSA-PBS at 37° C. […] After incubating at 37° C. for one hour, the wells were washed five times with PBST, and then the mouse anti-His antibody HRP labeled with 1% BSA-PBS diluted were added. After incubating at 37° C. for one hour, the wells were stained with TMB stain solution kit, 100 μL/well, for 8 minutes at room temperature. The reaction was stopped with 50 µL of 10% H₂SO₄/well. The optical density was read at 450 nm and 630 nm wavelength. The result is shown in FIG. 16, DFPD1-9, DFPD1-10, DFPD1-11, DFPD1-12 and DFPD1-13 can inhibit the binding of PD-1 and PD-L1.

PD-1 on PD1-CHO cells = biological target: T3, PD-1 on PD1-CHO cells; experiment: cell ELISA on fixed PD1-CHO cells, anti-human Fc-HRP
T3 construct: also called cell-surface PD-1
T3 sequence (chain, as listed by the source limits assumed): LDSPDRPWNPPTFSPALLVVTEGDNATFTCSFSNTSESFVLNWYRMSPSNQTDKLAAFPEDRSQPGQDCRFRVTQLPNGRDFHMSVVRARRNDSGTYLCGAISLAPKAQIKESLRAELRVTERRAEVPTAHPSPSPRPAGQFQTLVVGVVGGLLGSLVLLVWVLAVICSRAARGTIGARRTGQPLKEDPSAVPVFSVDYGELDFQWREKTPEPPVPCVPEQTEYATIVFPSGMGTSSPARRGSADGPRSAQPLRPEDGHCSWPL
Procedure: Firstly, the CHO cell line with stable PD-1 over-expression was made and named PD1-CHO. After coating 96-well plates with gelatin, PD1-CHO cells was digested by trypsin and then stopped. After centrifuging and suspending these cells, the cells were diluted to 2×10⁵ cells/mL, 100 μL per well in 96-well plates, totally 12 well×6 row, namely 2×10⁴ cells/well, and cultured at 5% CO₂, 37° C. overnight. The culture medium were discarded the next day, and the wells were washed one time with 350 μL precooling PBS. Freshly prepared 2% PFA was added to fix 5 minutes, and then PBS was used to wash two times.
The full-length anti-PD-1 antibody of double dilution was added into the cell plates, the diluent is PBS with 0.5% BSA. Sample concentration started from 100 μg/mL, diluting for 8 times, totally 12 gradients of dilution. After incubating for 30 minutes at room temperature, supernatant was discarded, and wells were washed three times with 350 μL pre-cooled PBS. The anti-human Fc-HRP Secondary antibodies diluted at 1:5000 were added, and incubated for 15 minutes at room temperature. After washing three times with 350 μL PBS, 100 μL TMB stain solution was added into each well, staining for 15 to 30 minutes at room temperature. After adding 50 μL2 mol/L H2504 per well to stop the staining, the optical density was read at 450 nm and 630 nm wavelength with the microplate reader.

PD-1-His [3] = biological target: T2, PD-1-His; experiment: ELISA on coated PD-1-His (60 ng/well), anti-human Fc-HRP
Procedure: After washing five times with 300 μl/well PBST, the wells were blocked for two hours with 1% BSA-PBS at 37° C. Different dilution of the antibodies DFPD1-9, DFPD1-10, DFPD1-11, DFPD1-12 and DFPD1-13 were added. The highest concentration of these five kinds of antibodies is 16 μg/mL, diluted for 4 times to 11 gradients, and the last well was used as the negative control which was added PBS diluent only. After incubating at 37° C. for one hour, the wells were washed five times with 300 μL/well of PBST, then adding the anti-human Fc-HRP secondary antibodies diluted at 1:40000 with 1% BSA-PBS, incubating at 37° C. for one hour. After staining with TMB stain solution kit, 100 μL/well, for 8 minutes at room temperature, the reaction was stopped with 50 µL of 2 mol/L H₂SO₄/well, and the optical density was determined at 450 nm and 630 nm wavelength.

T1 sequence (Q15116 25-167 limits assumed): as the sequence (Q15116 25-167 limits assumed) above

Binder | Kd [1] [nM] | koff [1] [s⁻¹] | kon [1] [M⁻¹ s⁻¹] | IC50 (read off the curve) (PD-1-His [2]) [µg/mL] | EC50 (read off the curve) (PD-1 on PD1-CHO cells) [nM] | EC50 (read off the curve) (PD-1-His [3]) [µg/mL]
DFPD1-9 full-length anti-PD-1 monoclonal antibody (antibody, human IgG4 S228P, kappa, V domains shown, Expressed in HEK293E cells and purified on protein A) VH: QVQLVESGGGVVQPGRSLRLDCKASGITFSNYGMHWVRQAPGKGLEWVAVIWYDSSRKYYADSVKGRFTISRDNSKNTLFLQMNSLRAEDTAVYYCATNNDYWGQGTLVTVSS VL: DIQMTQSPSSLSASVGDRVTITCRASQSIHNYLDWYQQKPGKAPKLLIYNASTRATGVPSRFSGSGSGTDFTLTISSLQPEDFATYYCQQELHLPLTFGQGTKVEIKR | 6.43 | 0.000105 | 16300 | ~0.1 | ~2 | ~0.006
DFPD1-10 full-length anti-PD-1 monoclonal antibody (antibody, human IgG4 S228P, kappa, V domains shown, Expressed in HEK293E cells and purified on protein A) VH: QVQLVESGGGVVQPGRSLRLDCKASGITFSNYGMHWVRQAPGKGLEWVAVIWYDSSRKYYADSVKGRFTISRDNSKNTLFLQMNSLRAEDTAVYYCATNNDYWGQGTLVTVSS VL: DIQMTQSPSSLSASVGDRVTITCRASQSVSNYLDWYQQKPGKAPKLLIYDASTRATGVPSRFSGSGSGTDFTLTISSLQPEDFATYYCQQNMQLPLTFGQGTKVEIKR | 3.96 | 0.00013 | 32800 | ~0.1 | ~0.9 | ~0.007
DFPD1-11 full-length anti-PD-1 monoclonal antibody (antibody, human IgG4 S228P, kappa, V domains shown, Expressed in HEK293E cells and purified on protein A) VH: QVQLVESGGGVVQPGRSLRLDCKASGITFSNNGMHWVRQAPGKGLEWVAVIWYDSSRKYYADSVKGRFTISRDNSKNTLFLQMNSLRAEDTAVYYCATNNDYWGQGTLVTVSS VL: DIQMTQSPSSLSASVGDRVTITCRASQSIHNYLDWYQQKPGKAPKLLIYNASTRATGVPSRFSGSGSGTDFTLTISSLQPEDFATYYCQQELHLPLTFGQGTKVEIKR | 10.8 | 0.000102 | 9360 | ~0.07 | ~4 | ~0.006
DFPD1-12 full-length anti-PD-1 monoclonal antibody (antibody, human IgG4 S228P, kappa, V domains shown, Expressed in HEK293E cells and purified on protein A) VH: QVQLVESGGGVVQPGRSLRLDCKASGITFSNYGMHWVRQAPGKGLEWVAVIWYDGSKKYYADSVKGRFTISRDNSKNTLFLQMNSLRAEDTAVYYCATNNDYWGQGTLVTVSS VL: DIQMTQSPSSLSASVGDRVTITCRASQSIHNYLDWYQQKPGKAPKLLIYNASTRATGVPSRFSGSGSGTDFTLTISSLQPEDFATYYCQQELHLPLTFGQGTKVEIKR | 22.4 | 0.000298 | 13300 | ~0.05 | ~2 | ~0.006
DFPD1-13 full-length anti-PD-1 monoclonal antibody (antibody, human IgG4 S228P, kappa, V domains shown, Expressed in HEK293E cells and purified on protein A) VH: QVQLVESGGGVVQPGRSLRLDCKASGITFSNNGMHWVRQAPGKGLEWVAVIWYDSSRKYYADSVKGRFTISRDNSKNTLFLQMNSLRAEDTAVYYCATNNDYWGQGTLVTVSS VL: DIQMTQSPSSLSASVGDRVTITCRASQSVSNYLDWYQQKPGKAPKLLIYDASTRATGVPSRFSGSGSGTDFTLTISSLQPEDFATYYCQQNMQLPLTFGQGTKVEIKR | 9.5 | 0.000108 | 18100 | ~0.08 | ~2 | ~0.008

Source: US20190144541A1 (BEIJING DONGFANG BIOTECH, published 2019)
